Holding throughout (assay): In vitro phosphorylation kinetics with recombinant Akt
Type in all cases: biochemical
What all share (conditions): other: recombinant Akt; n = 3

In series [1] the test system is CC(C)[C@H](NC(=O)[C@H](CCC(=O)O)NC(=O)[C@H](CCC(=O)O)NC(=O)[C@H](Cc1ccc(O)cc1)NC(=O)[C@H](CCC(=O)O)NC(=O)[C@H](CC(=O)O)NC(=O)[C@H](CC(=O)O)NC(=O)[C@H](CCC(=O)O)NC(=O)CCCCCNC(=O)[C@H](C)N(C)C(=O)[C@H](Cc1ccccc1)NC(=O)[C@@H](NC(=O)[C@H](Cc1ccccc1)NC(=O)[C@H](C)NC(=O)[C@H](CCCNC(=N)N)N(C)C(=O)[C@@H]1CCCN1C(=O)[C@H](CCCNC(=N)N)NC(=O)CNC(=O)c1ccc2c(c1)C1(OC2=O)c2ccc(O)cc2Oc2cc(O)ccc21)[C@@H](C)O)C(N)=O.

Series [2] relates to CC(C)[C@H](NC(=O)[C@H](CCC(=O)O)NC(=O)[C@H](CCC(=O)O)NC(=O)[C@@H]1Cc2ccc(O)cc2CN1C(=O)[C@H](CCC(=O)O)NC(=O)[C@H](CC(=O)O)NC(=O)[C@H](CC(=O)O)NC(=O)[C@H](CCC(=O)O)NC(=O)[C@@H](CCCNC(=N)N)NC(=O)[C@@H](CCCNC(=N)N)NC(=O)[C@@H](CCCNC(=N)N)NC(=O)[C@H](C)N(C)C(=O)[C@H](Cc1ccccc1)NC(=O)[C@@H](NC(=O)[C@H](Cc1ccccc1)NC(=O)[C@H](C)NC(=O)[C@H](CCCNC(=N)N)N(C)C(=O)[C@@H]1CCCN1C(=O)[C@H](CCCNC(=N)N)NC(=O)CNC(=O)c1ccc2c(c1)C1(OC2=O)c2ccc(O)cc2Oc2cc(O)ccc21)[C@@H](C)O)C(N)=O.

The test system of series [3] is CC(C)[C@H](NC(=O)[C@H](CCC(=O)O)NC(=O)[C@H](CCC(=O)O)NC(=O)[C@H](Cc1ccc(O)cc1)NC(=O)[C@H](CCC(=O)O)NC(=O)[C@H](CC(=O)O)NC(=O)[C@H](CC(=O)O)NC(=O)[C@H](CCC(=O)O)NC(=O)[C@@H](CCCNC(=N)N)NC(=O)[C@@H](CCCNC(=N)N)NC(=O)[C@@H](CCCNC(=N)N)NC(=O)[C@H](C)N(C)C(=O)[C@H](Cc1ccccc1)NC(=O)[C@@H](NC(=O)[C@H](Cc1ccccc1)NC(=O)[C@H](C)NC(=O)[C@H](CCCNC(=N)N)N(C)C(=O)[C@@H]1CCCN1C(=O)[C@H](CCCNC(=N)N)NC(=O)CNC(=O)c1ccc2c(c1)C1(OC2=O)c2ccc(O)cc2Oc2cc(O)ccc21)[C@@H](C)O)C(N)=O.

Consider 1 substance from paper PMC8753264.

Consider recombinant Akt (Homo sapiens), for which the results for the Km in series [1], in series [2] and in series [3] were 28 ± 16 µM, 17 ± 5 µM and 14 ± 3 µM, respectively. Moreover, the kcat came out at 1.0 ± 0.4 s⁻¹ in series [1], 0.8 ± 0.1 s⁻¹ in series [2] and 0.7 ± 0.1 s⁻¹ in series [3].
